T1: MT-C34 peptide conjugated to bovine serum albumin (BSA-MT-C34 conjugate) (HIV-1, covalently conjugated to bovine serum albumin by the sulfo-SMCC linker)
T1 chain: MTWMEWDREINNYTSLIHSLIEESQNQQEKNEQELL

B1: C24-6 mouse monoclonal antibody against the MT-C34 peptide (mAb) (antibody, V domains shown)
VH: EVQLVESGGDLVKPGGSLKLSCAASGFTFSRFGMSWGRQTPDKRLEWVATISTGGSYTYYPDSVKGRFTISRDNAKNSLYLQMSSLKSEDTAMYYCARHDDTAVYAMDYWGQGTSVTVSS
VL: DVVMTQTPLSLPVSLGDQASISCRSSQSLVHSDGDTYLHWYLQKPGQSPKLLIYKVSNRFSGVPDRFSGSGSGTDFTLKISRAEAEDLGVYFCSQSTHVPLTFGAGTKLELK
B2: human chimeric anti-MT-C34 antibody (chAb) (antibody, V domains shown)
VH: B1 VH
VL: B1 VL

Tests used:
[1] = target: T1, MT-C34 peptide conjugated to bovine …; assay: ELISA; replicate mAb-3, slope x 10^-8 M
[2] = target: T1, MT-C34 peptide conjugated to bovine …; assay: ELISA; replicate chAb-1, slope x 10^-8 M

Binder	Kd [1]	Kd [2]
B1	2.26 nM	
B2		1.14 nM

Reference: article PMC11428423 (2024)
